Measurements as given in US20220409742A1, “NUCLEIC ACID NANOPARTICLES, PHARMACEUTICAL COMPOSITION COMPRISING SAME, DRUG COMPRISING DOXORUBICIN AND PREPARATION METHOD THEREFOR” (BAI YAO ZHI DA (BEIJING) NANOBIO TECHNOLOGY CO., LTD., priority 2018, published 2022).
Several values for one entry are separate records, joined by “and”; a condition that tells them apart may be missing. Equal entries are not always repeated. {Biotin} = biotin attached at the strand end

Test: Particle size measurement (DLS hydrodynamic size)
Assay type: physicochemical
Settings: not given
From the text: 1. Preparing a potential sample (conventional-sequence DNA self-assembly product D-7) and putting into a sample pool, opening a sample pool cover of an instrument, and placing the instrument;
2. opening software, and clicking a menu, so a manual measurement parameter setting dialog box appears;
3. setting a software detection parameter; and then
4. clicking Ok to complete the settings, while a measurement dialog box appears, clicking Start to start, a DLS measurement value result of a hydrodynamic size of the self-assembly product D-7 is as follows:
1. Preparing a potential sample (7 groups of extension fragment deformation+core short-sequence RNA) and putting into a sample pool, opening a sample pool cover of an instrument, and placing the instrument;
4. clicking Ok to complete the settings, while a measurement dialog box appears, clicking Start to start, a DLS measurement value result of a hydrodynamic size of the 7 groups of extension fragment deformation+core short-sequence RNA is as follows:
(1) Preparing a potential sample (7 groups of extension fragment deformation+core short-sequence DNA) and putting into a sample pool, opening a sample pool cover of an instrument, and placing the instrument;
(2) opening software, and clicking a menu, so a manual measurement parameter setting dialog box appears;
(3) setting a software detection parameter; and then
(4) clicking Ok to complete the settings, while a measurement dialog box appears, clicking Start to start, a DLS measurement value result of a hydrodynamic size of the 7 groups of extension fragment deformation+core short-sequence DNA is as follows: […]

| Molecule | Mean particle size [nm] |
| --- | --- |
| R-15: extension fragment deformation+core short-sequence RNA nanoparticle, SEQ ID NO:120-122, 3′ biotin on a-strand, 2′F (nucleic acid, chain 1: 3' {Biotin}, sugars by position and backbone not given here; chain 2: chemistry not given here; chain 3: chemistry not given here; three-strand RNA nanoparticle, 2'-F modified) chain 1: GCGGCGAGCGGCGAGGAGCGUUGGGGCCGGAGGCCGG chain 2: CCGGCCUCCGGCCCCUUCGGGGCCAGCCGCC chain 3: GGCGGCAGGCCCCCAUAGCCCUCGCCGCUCGCCGC | 6.808 |
| R-16: extension fragment deformation+core short-sequence RNA nanoparticle, SEQ ID NO:123-125, 3′ biotin on a-strand, 2′F (nucleic acid, chain 1: 3' {Biotin}, sugars by position and backbone not given here; chain 2: chemistry not given here; chain 3: chemistry not given here; three-strand RNA nanoparticle, 2'-F modified) chain 1: GCGGCGAGCGGCGAGCAGCGUUCGGGCCGGAGGCCGG chain 2: CCGGCCUCCGGCCCGUUCGCCGCCAGCCGCC chain 3: GGCGGCAGGCGGCCAUAGCGCUCGCCGCUCGCCGC | 6.978 |
| R-18: extension fragment deformation+core short-sequence RNA nanoparticle, SEQ ID NO:129-131, 3′ biotin on a-strand, 2′F (nucleic acid, chain 1: 3' {Biotin}, sugars by position and backbone not given here; chain 2: chemistry not given here; chain 3: chemistry not given here; three-strand RNA nanoparticle, 2'-F modified) chain 1: GCGGCGAGCGGCGAGCAGCGUUCGGGCCGGAGGCCGG chain 2: CCGGCCUCCGGCCCGUUCGGCGCCAGCCGCC chain 3: GGCGGCAGGCGCCCAUAGCGCUCGCCGCUCGCCGC | 7.520 |
| R-19: extension fragment deformation+core short-sequence RNA nanoparticle, SEQ ID NO:132-134, 3′ biotin on a-strand, 2′F (nucleic acid, chain 1: 3' {Biotin}, sugars by position and backbone not given here; chain 2: chemistry not given here; chain 3: chemistry not given here; three-strand RNA nanoparticle, 2'-F modified) chain 1: GCGGCGAGCGGCGAGCAGCGUUCGGGCCGGAGGCCGG chain 2: CCGGCCUCCGGCCCGUUCGGCCCCAGCCGCC chain 3: GGCGGCAGGGGCCCAUAGCGCUCGCCGCUCGCCGC | 6.936 |
| R-17: extension fragment deformation+core short-sequence RNA nanoparticle, SEQ ID NO:126-128, 3′ biotin on a-strand, 2′F (nucleic acid, chain 1: 3' {Biotin}, sugars by position and backbone not given here; chain 2: chemistry not given here; chain 3: chemistry not given here; three-strand RNA nanoparticle, 2'-F modified) chain 1: GCGGCGAGCGGCGAGGAGCGUUGGGGCCGGAGGCCGG chain 2: CCGGCCUCCGGCCCCUUCGCCGCCAGCCGCC chain 3: GGCGGCAGGCGGCCAUAGCCCUCGCCGCUCGCCGC | 7.592 |

Same assay, conditions: detection times 1-3, listed as 1

| Molecule | Particle size Z-Ave, single detection |
| --- | --- |
| D-7: conventional-sequence DNA nanoparticle, SEQ ID NO:117-119, without target head, thio modification (nucleic acid, DNA, backbone and methylation of C not given here; three-strand DNA nanoparticle, phosphorothioate modification) chain 1: CGCGCGCCCACGAGCGTTGCGGGCGCCGC chain 2: GCGGCGCCCGCTTCGGCGGCAGGCGGC chain 3: GCCGCCAGCCGCCCATAGCCGTGGGCGCGCG | 10.76 nm·days and 13.9 nm·days and 10.36 nm·days |

Same assay, conditions: summary of 3 detections

| Molecule | Particle size Z-Ave, Experiment result |
| --- | --- |
| D-7: conventional-sequence DNA nanoparticle, SEQ ID NO:117-119, without target head, thio modification (nucleic acid, DNA, backbone and methylation of C not given here; three-strand DNA nanoparticle, phosphorothioate modification) chain 1: CGCGCGCCCACGAGCGTTGCGGGCGCCGC chain 2: GCGGCGCCCGCTTCGGCGGCAGGCGGC chain 3: GCCGCCAGCCGCCCATAGCCGTGGGCGCGCG | 12.33 d.nm(±1.57 d.nm) |

Test: Doxorubicin loading rate, chemical loading (paraformaldehyde covalent linkage)
Assay type: physicochemical
Settings: doxorubicin molecules per nucleic acid nanoparticle carrier
Experimental: (1) Accurately weighing the doxorubicin (5.0 mg, 8.6 μmol, 40 eq.) and dissolving in the DEPC treated water (1.8 mL) and the PBS buffer solution (2.1 mL), adding 4% paraformaldehyde aqueous solution (0.4 mL) under cooling of an ice-water bath and uniformly mixing, enabling the mixed solution to be totally uniformly mixed with the RNA nanoparticles (215 nmol), and reacting for 72 hours at 4 DEG C. under a dark condition.
(2) Taking 10 μL of reaction solution and diluting for 10 times, using 50 μM of the doxorubicin aqueous solution and 310 ng/μL of the RNA nanoparticles as controls, and performing HPLC analysis according to equal volume injection. According to a peak area ratio of each component, it may be adjusted that reaction conversion is basically completed.
(3) Extracting the reaction solution by the chloroform (10 mL×3), and then adding 10 times of the anhydrous ethanol in volume, after uniformly mixing, keeping at 4 DEG C. in the dark and enabling a product to be adequately precipitated (4 hours). Centrifuging, transferring supernatant, and washing the solid product again by the ethanol, evaporating a solvent under reduced pressure and lower temperature, to obtain a loading product which is a dark red solid.
(5) Loading rate calculation:
1. preparing a known concentration of doxorubicin-PBS standard solution: 2 μM, 4 μM, 6 μM, 8 μM, and 10 μM, 100 μL each;
2. enabling the doxorubicin-loaded product to be dissolved in 100 μL of the PBS;
3. putting the standard solution and the doxorubicin-loaded product into a PCR plate, heating at 85 DEG C. for 5 min, and then cooling to the room temperature;
4. measuring an absorbance of the doxorubicin at 492 nm by using a microplate reader, drawing a standard curve (as shown in FIG. 11), and calculating the molar concentration of the doxorubicin in the loaded product;
5. measuring an absorbance of RNA at 260 nm by using a spectrophotometer, to obtain the mass concentration of the doxorubicin-loaded product contained in each sample; and
6. according to the doxorubicin molar concentration and the mass concentration of the doxorubicin-loaded product obtained by measuring, calculating a loading rate.
According to the chemical loading method (unless otherwise specified, the method is the same as that of Embodiment 5) of Embodiment 5, the above DNA nanoparticles in Embodiment 1, the RNA nanoparticles formed by the self-assembly of the R-1, R-2, R-3, R-4, R-5, R-6 and R-7 in Embodiment 2, and the DNA nanoparticles formed by the self-assembly of the D-2, D-6 and D-7 in Embodiment 4 are respectively used as doxorubicin loading carriers, doxorubicin loading rates measured are respectively as follows:
According to the chemical loading method (unless otherwise specified, the method is the same as that of Embodiment 5) of Embodiment 5, the RNA nanoparticles formed by the self-assembly of the previous R-15, R-16, R-17, R-18, R-19, R-20 and R-21 in Embodiment 11, and the DNA nanoparticles formed by the self-assembly of the D-8, D-9, D-10, D-11, D-12, D-13 and D-14 in Embodiment 12 are respectively used as doxorubicin loading carriers, doxorubicin loading rates measured are respectively as follows: […]

| Molecule | doxorubicin loading rate |
| --- | --- |
| R-3: short-sequence RNA nanoparticle, strands SEQ ID NO:61-63, c/u 2′F modification (chain 1 CGAGCGUUGC; chain 2 GCUUCGCCGY; chain 3 CGGCCAUAGCCG; 2'-F C/U, chemistry not fully specified) | 4.8 |
| R-5: short-sequence RNA nanoparticle, strands SEQ ID NO:67-69, c/u 2′F modification (chain 1 GCAGCGUUCG; chain 2 CGUUCGGCGY; chain 3 CGCCCAUAGCGC; 2'-F C/U, chemistry not fully specified) | 12.5 |
| R-6: short-sequence RNA nanoparticle, strands SEQ ID NO:70-72, c/u 2′F modification (chain 1 GCAGCGUUCG; chain 2 CGUUCGGCCY; chain 3 GGCCCAUAGCGC; 2'-F C/U, chemistry not fully specified) | 2.8 |
| R-2: short-sequence RNA nanoparticle, strands SEQ ID NO:58-60, c/u 2′F modification (chain 1 GCAGCGUUCG; chain 2 CGUUCGCCGY; chain 3 CGGCCAUAGCGC; 2'-F C/U, chemistry not fully specified) | 2.4 |
| R-1: short-sequence RNA nanoparticle, strands SEQ ID NO:55-57, c/u 2′F modification (chain 1 GGAGCGUUGG; chain 2 CCUUCGCCGY; chain 3 CGGCCAUAGCCC; 2'-F C/U, chemistry not fully specified) | 3.5 |
| R-4: short-sequence RNA nanoparticle, strands SEQ ID NO:64-66, c/u 2′F modification (chain 1 GGAGCGUUGG; chain 2 CCUUCGGGGY; chain 3 CCCCCAUAGCCC; 2'-F C/U, chemistry not fully specified) | 3.5 |
| D-2: conventional-sequence DNA nanoparticle, SEQ ID NO:102-104, EGFRapt target head, thio modification (nucleic acid, DNA, backbone and methylation of C not given here; DNA nanoparticle with EGFR aptamer head, phosphorothioate modification) chain 1: CGCGCGCCCAGCAGCGTTCGCGGGCGGCGGCCTTAGTAACGTGCTTTGATGTCGATTCGACAGGAGGC chain 2: CGCCGCCCGCGTTCGCCGCCAGCCGCC chain 3: GGCGGCAGGCGGCCATAGCGCTGGGCGCGCG | 14 |
| D-6: conventional-sequence DNA nanoparticle, SEQ ID NO:114-116, without target head, thio modification (nucleic acid, DNA, backbone and methylation of C not given here; three-strand DNA nanoparticle, phosphorothioate modification) chain 1: CGCGCGCCCAGCAGCGTTCGGGGCGCCGC chain 2: GCGGCGCCCCGTTCGGCCGGCAGGCGGC chain 3: GCCGCCAGCCGGCCCATAGCGCTGGGCGCGCG | 11 |
| D-7: conventional-sequence DNA nanoparticle, SEQ ID NO:117-119, without target head, thio modification (nucleic acid, DNA, backbone and methylation of C not given here; three-strand DNA nanoparticle, phosphorothioate modification) chain 1: CGCGCGCCCACGAGCGTTGCGGGCGCCGC chain 2: GCGGCGCCCGCTTCGGCGGCAGGCGGC chain 3: GCCGCCAGCCGCCCATAGCCGTGGGCGCGCG | 10 |
